One assay concerns the target T1, ECF14_3200.
T1 chain: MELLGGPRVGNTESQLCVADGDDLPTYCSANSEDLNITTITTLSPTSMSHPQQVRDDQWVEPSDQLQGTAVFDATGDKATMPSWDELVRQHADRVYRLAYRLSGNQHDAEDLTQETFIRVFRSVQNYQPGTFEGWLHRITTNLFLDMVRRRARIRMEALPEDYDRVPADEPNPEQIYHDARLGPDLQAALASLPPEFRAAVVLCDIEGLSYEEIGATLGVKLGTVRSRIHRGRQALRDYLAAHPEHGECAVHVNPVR

A further assay has as its target T2, ECF38_1322.
T2 chain: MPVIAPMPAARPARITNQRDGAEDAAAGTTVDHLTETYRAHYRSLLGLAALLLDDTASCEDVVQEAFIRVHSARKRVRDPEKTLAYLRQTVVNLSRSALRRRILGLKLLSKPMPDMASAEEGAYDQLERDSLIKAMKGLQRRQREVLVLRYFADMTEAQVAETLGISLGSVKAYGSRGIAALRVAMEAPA

In another assay the target is T3, ECF28_1088.
T3 chain: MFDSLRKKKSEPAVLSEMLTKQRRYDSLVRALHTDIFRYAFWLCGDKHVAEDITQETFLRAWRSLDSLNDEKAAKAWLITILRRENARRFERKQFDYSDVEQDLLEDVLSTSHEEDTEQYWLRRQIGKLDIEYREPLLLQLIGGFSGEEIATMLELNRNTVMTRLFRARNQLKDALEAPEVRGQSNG

The next assay addresses T4, ECF33_423.
T4 chain: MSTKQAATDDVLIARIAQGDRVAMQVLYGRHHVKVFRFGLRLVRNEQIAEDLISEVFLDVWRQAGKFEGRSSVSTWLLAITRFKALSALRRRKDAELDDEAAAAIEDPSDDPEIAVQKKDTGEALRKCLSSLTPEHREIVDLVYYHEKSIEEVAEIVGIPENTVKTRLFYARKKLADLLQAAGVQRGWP

The target in another assay is T5, ECF16_3622.
T5 chain: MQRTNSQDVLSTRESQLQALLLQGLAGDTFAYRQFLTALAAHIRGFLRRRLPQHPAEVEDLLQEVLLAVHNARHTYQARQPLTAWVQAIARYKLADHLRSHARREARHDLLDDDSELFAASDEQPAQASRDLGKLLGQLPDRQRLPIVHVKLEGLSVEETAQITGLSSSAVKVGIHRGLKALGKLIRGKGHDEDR

In the next assay the target is T6, ECF33_375.
T6 chain: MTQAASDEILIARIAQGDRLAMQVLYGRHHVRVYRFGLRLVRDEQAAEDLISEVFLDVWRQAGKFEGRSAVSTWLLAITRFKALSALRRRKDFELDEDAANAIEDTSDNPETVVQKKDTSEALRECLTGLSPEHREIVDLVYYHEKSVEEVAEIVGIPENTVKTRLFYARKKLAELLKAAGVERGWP

The target of another assay is T7, ECF14_1324.
T7 chain: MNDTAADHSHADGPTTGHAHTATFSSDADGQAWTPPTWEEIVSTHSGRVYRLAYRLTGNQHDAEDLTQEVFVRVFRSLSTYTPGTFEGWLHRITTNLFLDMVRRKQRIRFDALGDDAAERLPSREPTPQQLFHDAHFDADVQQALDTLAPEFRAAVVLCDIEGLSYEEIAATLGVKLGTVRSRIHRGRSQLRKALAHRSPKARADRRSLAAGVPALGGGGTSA

A further assay has as its target T8, ECF22_1147.
T8 chain: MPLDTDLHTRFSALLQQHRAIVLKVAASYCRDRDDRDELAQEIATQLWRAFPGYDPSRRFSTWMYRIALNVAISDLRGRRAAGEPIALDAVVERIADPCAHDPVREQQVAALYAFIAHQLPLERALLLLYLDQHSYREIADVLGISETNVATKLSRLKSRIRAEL

The next assay has as its target T9, ECF15_436.
T9 chain: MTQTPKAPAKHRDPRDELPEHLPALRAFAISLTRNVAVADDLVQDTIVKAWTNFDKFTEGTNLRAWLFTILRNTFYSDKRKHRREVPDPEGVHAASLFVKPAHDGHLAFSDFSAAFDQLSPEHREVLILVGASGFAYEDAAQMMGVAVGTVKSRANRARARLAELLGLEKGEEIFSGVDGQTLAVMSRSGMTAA

A further assay concerns the target T10, ECF37_2513.
T10 chain: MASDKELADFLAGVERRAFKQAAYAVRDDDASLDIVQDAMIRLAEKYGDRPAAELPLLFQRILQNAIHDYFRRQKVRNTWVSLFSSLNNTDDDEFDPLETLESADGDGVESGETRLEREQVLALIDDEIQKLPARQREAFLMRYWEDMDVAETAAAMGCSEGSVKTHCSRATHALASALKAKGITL

A further assay addresses T11, ECF28_1040.
T11 chain: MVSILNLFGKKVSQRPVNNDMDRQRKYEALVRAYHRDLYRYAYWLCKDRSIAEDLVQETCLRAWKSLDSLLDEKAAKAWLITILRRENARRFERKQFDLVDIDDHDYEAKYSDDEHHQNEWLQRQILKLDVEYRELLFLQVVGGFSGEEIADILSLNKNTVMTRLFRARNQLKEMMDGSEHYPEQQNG

Another assay has as its target T12, ECF04_1609.
T12 chain: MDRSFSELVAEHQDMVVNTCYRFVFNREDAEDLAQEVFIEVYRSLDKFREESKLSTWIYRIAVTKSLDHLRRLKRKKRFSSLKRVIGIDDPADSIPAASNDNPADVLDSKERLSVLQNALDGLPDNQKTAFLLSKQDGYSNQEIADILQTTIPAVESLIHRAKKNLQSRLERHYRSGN

A further assay addresses T13, ECF15_524.
T13 chain: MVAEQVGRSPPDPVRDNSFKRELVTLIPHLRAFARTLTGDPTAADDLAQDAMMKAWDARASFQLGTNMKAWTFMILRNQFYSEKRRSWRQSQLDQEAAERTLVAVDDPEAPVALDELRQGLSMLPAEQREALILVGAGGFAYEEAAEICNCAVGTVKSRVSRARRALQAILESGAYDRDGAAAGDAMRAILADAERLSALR

The target of a further assay is T14, ECF17_1691.
T14 chain: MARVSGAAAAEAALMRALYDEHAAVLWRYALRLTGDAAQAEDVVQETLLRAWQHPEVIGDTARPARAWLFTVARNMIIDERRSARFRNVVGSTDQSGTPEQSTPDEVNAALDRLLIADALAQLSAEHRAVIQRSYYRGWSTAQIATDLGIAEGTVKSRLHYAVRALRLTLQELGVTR

B1: AS27_1331 (protein)
chain: MSAADKDPDKHSADADPPLTVELLADLQAGLLDDATAARIRSRVRSDPQAQQILRALNRVRRDVAAMGADPAWGPAARPAVVDSISAALRSARPNSSPGAAHAARPHVHPVRMIAGAAGLCAVATAIGVGAVVDAPPPAPSAPTTAQHITVSKPAPVIPLSRPQVLDLLHHTPDYGPPGGPLGDPSRRTSCLSGLGYPASTPVLGAQPIDIDARPAVLLVIPADTPDKLAVFAVAPHCSAADTGLLASTVVPRA
As for B1, the fold repression came out at 2.68 in the assay with ECF14_3200; 3.98 with ECF38_1322; 1.37 with ECF28_1088; 5.1 in the assay with ECF33_423; 6.93 in the assay with ECF16_3622; 4.75 with ECF33_375. Besides, the fold repression in the assay with ECF14_1324 worked out at 5.93; with ECF22_1147, 2.2; in the assay with ECF15_436, 4.26; in the assay with ECF37_2513 it was 2.75; with ECF28_1040, 1.5; with ECF04_1609, 5.65. The figures for the fold repression with ECF15_524 and with ECF17_1691 were 3.38 and 2.09, respectively.

B2: AS30_35 (protein)
chain: MDKRLQQLREEYKNVQIPKELDIIVEKALQQEPKKKRIVMWPTSAAIAAAILFTALVNINPDAAQAMSKIPVIGKIVKAITFIEIKEEKDQSSIDVKTPALSGLSNKELENSINEKYLKESQQLYKEFIQSTSKNKKGHLSIYSDYETVTDTPDLLSIRRNIETTQASSYTQSRYITIDKKNDILLTLKSLFKDERYIKVISQNIKEQMKQQMKEDPNKIYWLTDEDAEPFKTILPDQTFYITEDHKLVISFDEYEVAPGYMGVTEFTIPTGVISNLLVGERYIR
For the molecule B2, the fold repression turned out to be 1.91 with ECF14_3200; 1.84 in the assay with ECF38_1322; 1.68 with ECF28_1088; 1.99 with ECF33_423; 1.39 with ECF16_3622; 1.3 with ECF33_375. The fold repression with ECF14_1324 worked out at 1.7; with ECF22_1147, 2.12; with ECF15_436, 1.98; in the assay with ECF37_2513, 2.3; with ECF28_1040 it was 1.32; with ECF04_1609 it was 2.43. Moreover, the fold repression with ECF15_524 was 1.74; in the assay with ECF17_1691 it was 1.6.

B3: AS27_4265 (protein)
chain: MTGHPDVAEIADLAEGLLPTTRTTEVRQHLESCELCADVYASLTEIQGLLGTLPAPAPMPDDVAARIDAALAAEPPLGIADGTRVSRETSTPADRPAGHARPSSTGPGRKDRRRGGRRRIAVLGAVAAAAAIGIGSVVVSSLTEDSSSGNTAREQQTAIADTFSEGRLKDRVTNLVADGSAENGSRTPRSFGMESENGGETAENHVFKQPTVPECIRKGIGRDDAVIATEPGVYKGREALLVVLPDATNDTQVTAYIVETACVDQPAVGKAKILLEHSYARS
For the molecule B3, the fold repression in the assay with ECF14_3200 was 4.49; in the assay with ECF38_1322, 1.36; with ECF28_1088, 2.14; in the assay with ECF33_423, 1.63; with ECF16_3622, 5.58; with ECF33_375, 1.07. In addition, the fold repression with ECF14_1324 was 3.08; with ECF22_1147 it was 8.51; in the assay with ECF15_436 it was 3.65; with ECF37_2513 it was 2.03; in the assay with ECF28_1040, 2.19; in the assay with ECF04_1609, 2.44. In addition, the fold repression in the assay with ECF15_524 is 2.74; with ECF17_1691, 2.82.

For the origin of these results see paper PMC3817407.
